The text below walks through data of the DeepSol protein solubility set.

The nature of this data set: soluble on expression in E. coli; label from the status in PepcDB or PDB records.
Regarding “MKKLINKKETFLTDMLEGLLIAHPELDLIANTVIVKKAKKEHGVAIVSGGGSGHEPAHAGFVAEGMLDAAVCGEVFTSPTPDKILEAIKAVDTGDGVLLVVKNYAGDVMNFEMAQELAEMEGINVQTVIVRDDIAVTNEVQRRGVAGTVFVHKLAGYLAEKGYSLTEIKSRVEALLPEIKSIGMAIEPPLVPTTGKYGFDIEDDKMEIGIGIHGEKGIHREEVKDIDHIVGTLLDELYKEVTANDVILMVNGMGGTPLSELNIVTKYIQQNLAARTVNVAKWFVGDYMTSLDMQGFSITIVPNKPEYLEAFLAPTTSQYFKLEHHHHHH”, the “soluble on expression in E. coli” value is given as “soluble”.

“MSVVIERIPKEAIPKSLLLLADPSERQIATYVQRGLTYVAKQGGSVIGVYVLLETRPKTMEIMNIAVAEHLQGKGIGKKLLRHAVETAKGYGMSKLEVGTGNSSVSQLALYQKCGFRIFSIDFDYFSKHYEEEIIENGIVCRDMIRLAMELNKNV”: the “soluble on expression in E. coli” value is given as “soluble”.

In the case of “VGSEVSDKRTCVSLTTQRLPVSRIKTYTITEGSLRAVIFITKRGLKVCADPQATWVRDVVRSMDRKSNTRNNMIQTKPTGTQQSTNTAVTLTG”, the “soluble on expression in E. coli” value is on record as “soluble”.

“MLRSTSDRFRWSSLSLAIACTLPLATQAADTTTTQTSSKKHSTDTMVVTATGNERSSFEAPMMVTVIEGNAPTSQTAATAADMLRQVPGLTVTGSGRTNGQDVVMRGYGKQGVLTLVDGVRQGTDTGHLNSTFLDPALVKRIEIVRGPAALLYGSGALGGVIAYETVDAADMLQPGQNSGYRVYSSAATGDHSFGLGASAFGRTDDLDGILSFGTRDIGNIRQSNGFNAPNDETISNVLAKGTWQIDSIQSLSANLRYYNNSAIEPKNPQTSAPSSTNVMTNRSTIQRDAQLRYNIKPLDQEWLNATAQVYYSEVEINARPQGSAEEGREQTTEGVKLENRTRLFIESPASHLLTYGTETYKQEQTPGGATESFPQAKIRFSSGWLQDEITLRDLPVSILAGTRYDNYSGSSDGYADVDADKWSSRGAISITPTDWLMLFGSYAQAFRAPTMGEMYNDSKHFAIPIRPGLTLTNYWVPNPNLKPETNETQEYGFGLRFSDLLMAEDDLQFKVSYFDTKAKDYISTRVDMQAMTTTSVNIDQAKIWGWDASMSYKTALFNWDLAYNRTRGKNQNTDEWLDTINPDTVTSIVDVPVANSGFSVGWIGTFANRSSRVSSSTPQAGYGVNDFYVSYKGQEAFKGMTTTMLLGNVFEKEYYTPQGIPQDGRNVKFFVSYQW”: the “soluble on expression in E. coli” value is “not soluble”.

On to “MSLTPRFIDLHTHTTASDGSDSPADLVRKATEAGLAAVAVTDHDTVAGLDEAVAMGHETGIEVVRGCELGVRSEYGEIHILGLWLPEKPETLLDAMKELRRHRNERNERIVDNLRTLGMDITYEEVRALSGGVSVGRPHIALALLRHGYIRTPQEAFDRFIGPGAPAYAPKKVFSPAEGVRLLASCGATVAIAHPMLLRCPEEWLDDTVADLKVAGLDAIEAYHSEHSHKDERRCVDIADRHGLVLTGGSDYHGKAKPAISLGRGREGHHHHHH”, for which the “soluble on expression in E. coli” value was “not soluble”.

In the case of “MAHHHHHHMRVRSLLLCIRRDPLQRAVDVAYASGMLLGSGSSRGTTHFSETTAFTSSNFAADLRGGRVGLAGDGGTKCDDRNGELVRGRIQFASRCAEGPFVGASPTVTSCAHIEGVVRQVECGYVGGDRVLQFIIEVEEVPASGGTPMRLPLAVRWRPGSEVAQNRMDEWQKEMERLVGRRVLASGRLQVEECFDSGSRRLYKTPSLVLPATSTVEMISLQELEC”, the “soluble on expression in E. coli” value was “not soluble”.

“MKKAIQFGAGNIGRGFIGGLLVKSGYHVVFADVNEYILNSINKDKKYTIHIRDVECIDEVIDNISAVSSIKEEIIDEIVQAEIITTAVGPLVLTKIASTIAKGIKARKEKGLTSNLNIIACENAIYASSSLKEEVLKYLNKEEVEYLEMYVGFPNCSVDRIVPPGKNENPLDVTVENFYEWNVEKQGFKGEIPTIVGMNLADNLMAYIERKLFTLNTGHAITAYIGYLKGYKTIEESIKDKFICDIVKSAMVESGEGLIKKYNFDSEVHYKYIDKILNRFKNPYLNDDVLRVGREPLRKLSDKDRLIKPLMTAKSYGLSVDNLILGIGAALHYNNSEDTQSVELQELIKSIGVKKAVAKIANISNDEELLNNIEKSYIFMKNL”: the “soluble on expression in E. coli” value was “not soluble”.

“MGSDKIHHHHHHMEVLYRKYRPKTFSEVVNQDHVKKAIIGAIQKNSVAHGYIFAGPRGTGKTTLARILAKSLNCENRKGVEPCNSCRACREIDEGTFMDVIELDAASNRGIDEIRRIRDAVGYRPMEGKYKVYIIDEVHMLTKEAFNALLKTLEEPPSHVVFVLATTNLEKVPPTIISRCQVFEFRNIPDELIEKRLQEVAEAEGIEIDREALSFIAKRASGGLRDALTMLEQVWKFSEGKIDLETVHRALGLIPIQVVRDYVNAIFSGDVKRVFTVLDDVYYSGKDYEVLIQEAVEDLVEDLERERGVYQVSANDIVQVSRQLLNLLREIKFAEEKRLVCKVGSAYIATRFSTTNVQENDVREKNDNSNVQQKEEKKETVKAKEEKQEDSEFEKRFKELMEELKEKGDLSIFVALSLSEVQFDGEKVIISFDSSKAMHYELMKKKLPELENIFSRKLGKKVEVELRLMGKEETIEKVSQKILRLFEQEG”: the “soluble on expression in E. coli” value is “not soluble”.

Turning to “DEPNQPSTPEAVTKTVTIDASKYETWQYFSFSKGEVVNVTDYKNDLNWDMALHRYDVRLNCGESGKGKGGAVFSGKTEMDQATTVPTDGYTVDVLGRITVKYEMGPDGHQMEYEEQGFSEVITGKKNAQGFASGGWLEFSHGPAGPTYKLSKRVFFVRGADGNIAKVQFTDYQDAELKKGVITFTYTYPVK”, the “soluble on expression in E. coli” value is recorded as “soluble”.

Regarding “MAHHHHHHMESAIGLSVPLYQPHAPAPGAVIDPDMVEDHVSFLRTVRAFHDYKRQALAAREMRCTNFRKLQDQHRHLLCIDLDKILEKYLECIKVNSAFFDAICEASEELFDSYWPEGTTVFMKEVPPPTPLDMNKVFSTLRQFVRDWSAEGVAERDCVYKPILDTLDRCFPNRSERENVRVLIPGAGLCRLSVELALHGFFAQANEFSYHMLIAGHYIQNHVFESCQHKIYPYSDSTCNLVNRADQFAEVQIPDLCASEAIDALRDKGLSFGQLSMVAGDFTEVYAKPHQHKTWSVVATCFFIDTAHNIIEYLVIIYNLLVPGGYWVNVGPLLYHFADSADDMSIELSLGEVLTVAQRIGFVLNGPPSFIDTTYTNNQRSMKQLVYRCAFFVLQRPLADRQTEQMDRNVEAKVT”, the “soluble on expression in E. coli” value is reported as “not soluble”.

In the case of “MGSDKIHHHHHHMHTVAVERAARYDPSEVAEAMDRALASLGGMDTFVRPGERVLIKPNMLAAKAPERAVTTHPEVLRAVIRLVRKAGGIPLVGDSPGIGGFRAVAEKSGMAAVVREAGAELVPFDEAVAVPGSGLFRRMDVARPYLEADRLINLPKLKTHEMMTMTCAVKNLFGAVVGTAKAGWHLKAGADRELFARLLLEIYLLRPPDLTIVDGIVAMEGDGPGSGDPRPMGLILAGANAVAVDVVAAELAGIPKQLLWVERAAERLGIDGWDRSRIATVGLPPDDARVPDFRLPHLSDVQFGIPGFLKNRLRHHLTARPVPNPEGCHLCGACLDACPPRAISVRDGRLHFDYHACIRCFCCRELCPDGSLGVRDGVLLKLLKKFKE”, the “soluble on expression in E. coli” value is on record as “not soluble”.

Regarding “MGSDKIHHHHHHMIKAMYSGVSGMKANQTKLDVIGNNVANAGTTSFKKSSARITDSFYQTVLYASAPTAALGGTNLGQVGVGSKISSINKDMVQGNVQPTNRPSDLMIDGDGYLPVVRQGTVMYTRDGSFNLDTGFKAADGALKNIKGGRLVNGDGYMLQGMIYDGEYKADTGEFVKKGDAKGKEPIVIPLQSISPKDGTVQNVLEYNISKDGTVEFLLSDGQRTQFVYDIPDGAKVGDTPAGIDKLKGTIQKVQIYAFQNPAGLDAAGGNLFKPSANSGDPQIAGATGTIIQGAIEASNVDIAEEFTEMIIASRSFQANSKIISTSDEILQEIINLKR”, the “soluble on expression in E. coli” value was “not soluble”.

For “MQSPEKIDPTWEDSVIDSFISFVRSYDGDFTCIYKLADTVSDEYSLQKIIDFLSSTPQGKQAFQKRPQLGVVDLPKLHQLPTDTLGYVYADQMLQNNLQPLQSHEIDNDYQFFKTHITETHDLWHIVTGADTSILGEIQLEAFYVSQLYASRFWLALLAKNLLKAVIYDIELSTPYMDAISTGWVMAKQAKPLFGLEWNLLWEKPLADVRTSLNIILPVNLEHHHHHH”, the “soluble on expression in E. coli” value is given as “soluble”.

As to “MDVTQLKMLRNAKVVSEIKKGFSIDKKYQVDETYLVRVFPKELLQTRKQEFEIIQALGSQTPFVPRAYDFGCTGGEGYMIIGYVRGEDAENGMFRLSHSEQFKAGFSAGEILREVHKIPLDIPKMNWLDFQTAKFKRKVEELKELEITASFLTETEQFVYENIARLKNRPVCLQHGDFHPANIILKNKKFAGLIDFNRLEFGDPLFDLAKIGFFTTEVSIPFARGNILGYIDKEEVTDFWNLYALYTAMHITSAVNWAAKNESRNFNKLMNYAAKTAASHDNFQKLMPDWMNKEEFK”, the “soluble on expression in E. coli” value was “not soluble”.

Consider “MKSACSIITASIVLYKSKPDIIRDVITSFFSDTVTKKKLILIDNSPTDSLRVLQEERPEDIQYFFNNRNIGFGSAHNIGIREAARFNPSYHLILNPDVQFGPEVVPTLASYMDENPDIGLLMPQVYYPNGELQHLCKLFPRPWDVMLRRFVPYRSYRERNNERFELRNWSYDTIQDIPSLSGCFMFARMDILREVGGFDERFFMYAEDLDLCRRIGQVSRTVFFPKVSIMHTYAKGSYHLEHHHHHH”, for which the “soluble on expression in E. coli” value is “soluble”.

“TLQIQFKKYELPPLPYKIDALEPYISKDIIDVHYNGHHKGYVNGANSLLERLEKVVKGDLQTGQYDIQGIIRGLTFNINGHKLHALYWENMAPSGKGGGKPGGALADLINKQYGSFDRFKQVFTETANSLPGTGWAVLYYDTESGNLQIMTFENHFQNHIAEIPIILILDEFEHAYYLQYKNKRADYVNAWWNVVNWDAAEKKLQKYLTK”: the “soluble on expression in E. coli” value was “soluble”.

As to “MTFEAITREWYQRRYDRWSESYRLEMMSTFESDVFPYIGYRPIKEIKPLELMAVLSKLEKRGATEKMRKVRQRCGEVWKYAIITGRAEYNPAPDLASAFAPHKREHLEHHHHHH”, the “soluble on expression in E. coli” value was “not soluble”.

As to “TELTLKPGTLTLAQLRAIHAAPVRLQLDASAAPAIDASVACVEQIIAEDRTAYGINTGFGLLASTRIASHDLENLQRSLVLSHAAGIGAPLDDDLVRLIMVLKINSLSRGFSGIRRKVIDALIALVNAEVYPHIPLKGSVGASGDLAPLAHMSLVLLGEGKARYKGQWLSATEALAVAGLEPLTLAAKEGLALLNGTQASTAYALRGLFYAEDLYAAAIACGGLSVEAVLGSRSPFDARIHEARGQRGQIDTAACFRDLLGDSSEVSLSHKNADKVQDPYSLRCQPQVMGACLTQLRQAAEVLGIEANAVSDNPLVFAAEGDVISGGNFHAEPVAMAADNLALAIAEIGSLSERRISLMMDKHMSQLPPFLVENGGVNSGFMIAQVTAAALASENKALSHPHSVDSLPTSANQEDHVSMAPAAGKRLWEMAENTRGVLAIEWLGACQGLDLRKGLKTSAKLEKARQALRSEVAHYDRDRFFAPDIEKAVELLAKGSLTGLLPAGVLPSL”, the “soluble on expression in E. coli” value was “soluble”.

As to “MNNIRLLNQNDLDSYIELMKFGHHNYEWDRYYLENVSIDRLKTILSNHTDYWNIFGAFEDDELVATCTLKQMNYVGKCHKAILENNFVKNNDEIVNRELINHIIQYAKEQNIETLMIAIASNNISAKVFFSSIGFENLAFEKNASKIGNEYFDENWLIYSTTE”, the “soluble on expression in E. coli” value was “not soluble”.

As for “MALACTDSANSTFSRVDSPTSGPSDQLTTHDLDRHIEKLMRCELIAEQDVKTLCAKAREILAEEGNVQVIDSPVTICGDIHGQFYDLMELFKVGGPVPNTNYLFLGDFVDRGFYSVETFLLLLALKARYPDRMMLIRGNHESRQITQVYGFYDECLRKYGNASVWKHCTEVFDYLSLAAVIDGKVFCVHGGLSPSISTMDQIRVIDRKQEVPHDGPMCDLLWSDPEEGNVGWGLSPRGAGYLFGADASKTFCETNGVDLICRAHQLVMEGYKWHFNEKVLTVWSAPNYCYRCGNVAAILELDENLNKEFTIFEAAPQENRGAPAKKPHADYFL”, the “soluble on expression in E. coli” value is “not soluble”.
